Experimental data from patent US10000775B2, “Biosynthesis of 1-undecene and related terminal olefins” (The Regents of the University of California, priority 2013, dated 2018).

Test: In vitro activity of PFL_4321 and PFL_0203 toward fatty acids with various chain lengths
Type: biochemical
Parameters: key to In vitro activity toward C8:0 / In vitro activity toward C10:0 / In vitro activity toward C12:0 / In vitro activity toward C14:0 / In vitro activity toward C16:0: ✓: indicates production of the corresponding 1-alkene from the indicated substrate; x: indicates failure to produce the corresponding 1-alkene from the indicated substrate
Method: A typical condition is as follows: 1 mL of reaction mixture contains 50 mM MES buffer (pH 6.2), 300 mM NaCl, 100 μM (NH4)2Fe(SO4)2, 1 mM ascorbic acid, 100 μM fatty acid substrate or analogs, and 10 μM enzyme. The reaction was performed in a sealed headspace vial at 30° C., initiated by adding lauric acid and quenched by injecting equal volume of 5 M NaOH. 1-Undecene production was analyzed and quantified by using the SPME-GCMS method. To determine the kinetic parameters of PFL_4321 on lauric acid, initial velocities at 1, 10, 20, 50, 100, and 150 μM of lauric acid were measured (25 mM lauric acid solution was prepared by adding 0.5% tergitol and heating at 65° C. for 10 min). The reactions were quenched at 2, 4, 6, 8, and 10 seconds, and the acquired turnover rates were fit to the Michaelis-Menten equation using GraphPad Prism to obtain kcat and Km. The kcat and Km of myristic acid and capric acid were determined similarly.
Unless otherwise noted, all experiments with PFL_0203 as described herein were performed using similar assays, procedures, and techniques as used in a given corresponding experiment as described in Example 1.
The fatty acid substrate specificity of PFL_0203 was investigated in a series of in vitro experiments. […] Thus, PFL_4321 and PFL_0203 share some overlap in suitable substrates; PFL_4321 is able to act on C10-C14 fatty acid substrates, and PFL_0203 is able to act on C10-C16 fatty acid substrates.

B1: PFL_4321: protein of 261 amino acids from Pseudomonas fluorescens Pf-5; non-heme iron (II)-dependent enzyme converting medium-chain fatty acids into terminal olefins (protein, listed as Pseudomonas fluorescens)
chain: MIDTFSRTGPLMEAASYPAWTQQLIQDCSESKRRVVEHELYQRMRDNKLSAKVMRQYLIGGWPVVEQFALYMAQNLTKTRFARHPGEDMARRWLMRNIRVELNHADYWVHWSRAHGVTLEDLQAQQVPPELHALSHWCWHTSSADSLIVAIAATNYAIEGATGEWSALVCSNGIYAAAFPEEDRKRAMKWLKMHAQYDDAHPWEALEIIVTLAGLNPTKALQAELRQAICKSYDYMYLFLERCMQQEKTAVTRERLALAEG
Substrate C8:0
  In vitro activity toward C8:0: x
Substrate C10:0
  In vitro activity toward C10:0: ✓
Substrate C12:0
  In vitro activity toward C12:0: ✓
Substrate C14:0
  In vitro activity toward C14:0: ✓
Substrate C16:0
  In vitro activity toward C16:0: x
